Laboratory results as given in article PMC8782954, “Interplay between an ATP-binding cassette F protein and the ribosome from Mycobacterium tuberculosis” (Nature Communications, 2022).

B1: ribosomal protein uS7 of the Mtb 30S subunit (natural protein)
chain: MPRKGPAPKRPLVNDPVYGSQLVTQLVNKVLLKGKKSLAERIVYGALEQARDKTGTDPVITLKRALDNVKPALEVRSRRVGGATYQVPVEVRPDRSTTLALRWLVGYSRQRREKTMIERLANEILDASNGLGASVKRREDTHKMAEANRAFAHYRW
B2: MtbEttA (energy-dependent translational throttle A from Mycobacterium tuberculosis, Rv2477c) (natural protein)
chain: SMAEFIYTMKKVRKAHGDKVILDDVTLSFYPGAKIGVVGPNGAGKSSVLRIMAGLDKPNNGDAFLATGATVGILQQEPPLNEDKTVRGNVEEGMGDIKIKLDRFNEVAELMATDYTDELMEEMGRLQEELDHADAWDLDAQLEQAMDALRCPPADEPVTNLSGGERRRVALCKLLLSKPDLLLLDEPTNHLDAESVQWLEQHLASYPGAILAVTHDRYFLDNVAEWILELDRGRAYPYEGNYSTYLEKKAERLAVQGRKDAKLQKRLTEELAWVRSGAKARQAKSKARLQRYEEMAAEAEKTRKLDFEEIQIPVGPRLGNVVVEVDHLDKGYDGRALIKDLSFSLPRNGIVGVIGPNGVGKTTLFKTIVGLETPDSGSVKVGETVKLSYVDQARAGIDPRKTVWEVVSDGLDYIQVGQTEVPSRAYVSAFGFKGPDQQKPAGVLSGGERNRLNLALTLKQGGNLILLDEPTNDLDVETLGSLENALLNFPGCAVVISHDRWFLDRTCTHILAWEGDDDNEAKWFWFEGNFGAYEENKVERLGVDAARPHRVTHRKLTRG
notes: also called Mtb Rv2477c

Assays:
[1] = target: B2; assay: cryo-EM structure; conditions: both partners purified
SEC = target: the molecule itself; assay: SEC

Binder | binding result [1] | stoichiometry N (SEC)
B1 | binds | 
B2 |  | 2
